This note sets out measurements from patent US8022178B2, “Modified self-assembling peptides” (Massachusetts Institute of Technology, priority 2006, dated 2011).

For series [1], the system named is HUVEC (human umbilical vein endothelial cells). The experiment in a line: HUVEC cultured 2-dimensionally on hydrogels: cell attachment and morphology. Set-up: key to Capillary like morphology: weak: +; medium: ++; strong: +++; very strong: ++++. The note with it: HUVEC cultured on hydrogels. The series is classed as cell-based. The method, then: The effect of functional modified peptide matrix to HUVEC (human umbilical vein endothelial cells) was evaluated by culturing cells 2-dimensionally on the gel.
The peptide solutions shown in Table 19 were loaded in the culture inserts (10 mm diameter, Millicell-CM, Millipore) and gels were formed using cell culture medium (EGM-2-MV, Camblex). Collagen-1 and Matrigel were used as control matrices. HUVEC (human umbilical vein endothelial cells) were plated at 8×10^4 cells on the inserts and cultured up to 7 Days.

The nature of series [2]: pI and charge of the self-assembling peptide. The format is physicochemical. The method, then: (§1) A comparison of the pH dependent property of 1% Ac(RADA)4GGFHRRIKA CONH2 (SEQ ID NO. 6) solution (Code: FHR), self assembling peptide sequence was compared with the heparin-binding motif. FIG. 12 depicts the isoelectric plot and corresponding rheological data when 0.1 N NaOH solution is added to FHR solution to adjust pH. The net charge of the peptide molecule is kept ≧2 when pH<10. Until at point of pH 5.7, the solution keeps viscous state. This movement of pH point where the peptide solution become gel is controlled by the charge induced by the additional motif to the self-assembling peptide. The induced charge prevents the peptide to aggregate to form the gel. Thus, the cell and the peptide solution can be mixed near neutral pH. After complete mixing, the gel formation can be made by adding salt containing solution (e.g., a solution containing a gellation agent or an iso-osmotic solute).
FIG. 18 depicts the isoelectric plot and Rheological data of PFS 1% solution when 0.1 N NaOH solution is added. 1% Ac(RADA)4GGSKPPGTSS-CONH2 solution (Code: SKP, peptide sequence: SEQ ID NO. 7) is a hydrogel composed of peptides with a self-assembling sequence and positively-charged functional motif. Although the pI value of the peptide is 9.74 and it keeps positive charge at near pH 7 range, the gel is formed at the point of pH 4.5. This is because the charge of the molecule around pH 7 range is +1 and smaller than the charge of Ac(RADA)4GGFHRRIKA CONH2 (FHR) (bigger than 3). The charge of the whole peptide should be larger than 2 when the cell is mixed. This pH should be somewhere in 6-8 in order to minimize the damage to the cells. As this sequence is heparin-binding motif, the fiber can attach to the heparin molecule which is abundant at cell surface. This heparin-binding motif provides a specific anchor to the cell. As described in Example 1, this binding synergistically works with the other binding motif (e.g., RGD) to induce biological stimuli for cell proliferation and differentiation. This effect is not limited to the sequences previously describe, but the other motifs, including -XBBXBX- and -XBBBXXBX- sequences. […]

The target in a further series is bFGF (Homo sapiens, UniProt P09038). The experiment in a line: bFGF retention in peptide matrix (ELISA). Conditions: bFGF 175 ng/insert loaded after gelation; during PBS washing and culturing; FIG. 19. The method, then: The effect of protein retention and delivery using the self-assembling peptide were studied (Table 11). bFGF was used as a model protein. The retention of bFGF in different peptide matrix in different charge condition was measured by ELISA after washing by PBS. After washing out unbound bFGF, the effect of protein retention to self-assembling peptide matrix were evaluated the using cell culturing of HUVEC (human umbilical vein endothelial cells).
The peptide solutions provided in Table 12 were loaded in the culture inserts (10 mm diameter, Millicell-CM, Millipore) and gels were formed using PBS. After gelation, bFGF solution in PBS was added inside and outside and plated for overnight. bFGF was loaded at 175 ng/insert. After loading bFGF, the PBS inside and outside the inserts were exchanged three times (2 hours, 9 hours and 12 hours) to remove unbound bFGF (Washing). After the washing, the PBS was exchanged to the cell culture medium (EGM-2-MV, Camblex) without attached growth factor (bFGF, VEGF and EGF) and placed more than a day (such that the fluid contained in the gel is exchanged from PBS to cell culture medium), then HUVEC (human umbilical vein endothelial cells) were plated at 7.5×10^4 cells on the inserts and cultured for three days.
Cell culturing using cell culture medium (EGM-2-MV) was used without attached growth factor on peptide matrix as negative control. Cell culturing using cell culture medium (EGM-2-MV) was used with attached growth factor on peptide matrix without loading growth factor as positive control. The bFGF concentration in washing buffer (PBS) and cell culture medium (EGM-2-MV) was measured using ELISA. The washing buffer and cell culture medium were exchanged at each measurement period (2 hours, 9 hours and 12 hours for washing, and at the cell seeding (D0), Day 1 (D 1), Day 2 (D2) and Day 3 (D3)). Growth factor retention rate was calculated by accumulating the amount of measured bFGF.

A short description of series [3]: Isoelectric plot and rheological data when 0.1 N NaOH is added (pH of gel formation). The format is physicochemical. Conditions: 1% solution, 0.1 N NaOH solution added.
From the text: At the point of pH 3.6, the viscous solution become gel and has a higher G′ (stiffness), G″ (viscosity) value. When the pH is increased, the gel breaks into small pieces and it becomes a solution with precipitated peptides. At lower pH, the peptide forms fibers and the fibers make the solution viscous. When the pH becomes higher, and approaches the pI value, the peptide fibers lose their charge and aggregate to form gel. The same gel formation happens when the peptide charge is screened by salts in a salt-containing solution (e.g., a solution containing a gellation agent or an iso-osmotic solute). Once the gel is formed, the fiber structure is broken into pieces to form a precipitate particle.
as §1
FIG. 18 depicts the isoelectric plot and Rheological data of PFS 1% solution when 0.1 N NaOH solution is added. 1% Ac(RADA)4GGSKPPGTSS-CONH2 solution (Code: SKP, peptide sequence: SEQ ID NO. 7) is a hydrogel composed of peptides with a self-assembling sequence and positively-charged functional motif. Although the pI value of the peptide is 9.74 and it keeps positive charge at near pH 7 range, the gel is formed at the point of pH 4.5. […]

bFGF, sequence (P09038 143-288, species assumed): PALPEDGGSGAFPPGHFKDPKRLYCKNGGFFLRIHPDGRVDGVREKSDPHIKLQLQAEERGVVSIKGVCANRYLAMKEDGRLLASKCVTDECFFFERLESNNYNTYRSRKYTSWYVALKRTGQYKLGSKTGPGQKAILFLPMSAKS

In the case of “Ac(RADA)4GGFHRRIKA-CONH2 (Ac-RADARADARADARADAGGFHRRIKA-NH2) [FHR = 1% solution; FHR-2P = 2% solution]”, in series [1], the Capillary like morphology result is recorded as “+” and the Cell attachment entry is on record as “++ (++: 20-50%)”. Besides, in series [2], the charge entry is on record as “positively charged” and the pI is reported as 11.32,. Besides, in series [2] (around pH 7), the “charge of the molecule around pH 7 range” value is above 3. Besides, in series [2] (when pH<10), the “net charge of the peptide molecule” value is on record as at least 2. The “bFGF (growth factor) retention rate” value in the series with bFGF was “high in the order of KFQ-2P, FHR-2P, RAD-2P then DGR-2P”. Besides, the “pH at which the viscous peptide solution becomes gel” value in series [3] is on record as 5.7.
Ac(RADA)4-CONH2: the Cell attachment result in series [1] is “+ (+: Weak(<20%))”. In series [2], the charge entry is “neutral” and the pI came out at 6.1. Moreover, in the series with bFGF, the “bFGF (growth factor) retention rate” value is reported as “high in the order of KFQ-2P, FHR-2P, RAD-2P then DGR-2P”. Also, the “pH at which the viscous peptide solution becomes gel” value in series [3] worked out at 3.6.
